# Data reported in patent publication US8557986B2, “Method of producing polysaccharide derivatives” (Seikagaku Corporation, priority 2006, dated 2013).
# Experiment: not given
# Conditions: not given
# Experimental: The aminoethanol-diclofenac-introduced sodium hyaluronate prepared in Reference Examples 1 and 2 were tested by the same procedure.
row,Substance,solubility in distilled water (appearance of the solution)
1,aminoethanol-diclofenac-introduced sodium hyaluronate [Example 2],homogeneously dissolved in distilled water and yielded clear and viscous aqueous solutions
2,aminoethanol-diclofenac-introduced sodium hyaluronate [Example 3],homogeneously dissolved in distilled water and yielded clear and viscous aqueous solutions
3,aminoethanol-diclofenac-introduced sodium hyaluronate [Reference Example 1],not dissolved in distilled water but yielded a white suspension
4,aminoethanol-diclofenac-introduced sodium hyaluronate [Reference Example 2],homogeneously dissolved in distilled water and yielded clear and viscous aqueous solutions

# Experiment: Test Example 2: passage of 1.0% (w/v) aqueous solution through 0.22 μm porous filter
# Assay type: physicochemical
# Conditions: Millex-GV 0.22 μm pore diameter, room temperature, absorbance before and after filter passage
# Experimental: Each of the aqueous solutions (test solutions) was injected into a rear portion of a syringe (1 mL in volume: manufactured by TERUMO Corporation) equipped with a porous filter (Millex-GV of 0.22 μm pore diameter: manufactured by Millipore Corporation) and was pressed out with a piston at room temperature to pass through the porous filter.
# The diclofenac-based absorbance (peak top) at about 280 nm was measured for each of the test solutions before, and after the filter passage of at least 0.5 mL. The filter passage coefficient of each test solution was expressed by a concentration of the diclofenac content in the test solution before and after the filter passage that was calculated from the change in measured absorbance.
row,Substance,filter passage coefficient [%]
1,aminoethanol-diclofenac-introduced sodium hyaluronate [Example 1],95.3
2,aminoethanol-diclofenac-introduced sodium hyaluronate [Reference Example 3],96.9
3,aminoethanol-diclofenac-introduced sodium hyaluronate [Reference Example 4],11.0
